{
  "source": "paper PMC4751435",
  "about": "(2016)",
  "assay_in_all_cases": "BRET",
  "key": {"luciferase-FOXP1": {"molecular_target": "luciferase-FOXP1 (UniProt Q9H334)", "conditions": "HEK293 cells, n = 3, read off a plot"}, "[1]": {"molecular_target": "luciferase-FOXP2 (wild-type, full-length 1-715) (UniProt O15409)", "conditions": "HEK293 cells, n = 3, read off a plot"}, "[2]": {"molecular_target": "luciferase-FOXP2 (wild-type, full-length 1-715) (UniProt O15409)", "conditions": "HEK293 cells, n = 3, read off a plot", "remark": "listed apart in the source"}, "[3]": {"molecular_target": "YFP-SUMO1 alanine mutant (AA), P63165-1", "sequence (P63165 1-97, change not shown)": "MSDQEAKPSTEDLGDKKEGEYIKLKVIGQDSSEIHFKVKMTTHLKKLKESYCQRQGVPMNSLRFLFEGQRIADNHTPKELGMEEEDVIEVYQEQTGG", "conditions": "HEK293 cells; n = 3; control donor (nuclear-targeted luciferase) est. 0.005; parent: est. 0.15; read off a plot"}, "[4]": {"molecular_target": "YFP-SUMO1 alanine mutant (AA), P63165-1", "conditions": "HEK293 cells; n = 3; control donor (nuclear-targeted luciferase) est. 0.004; parent: est. 0.15; read off a plot"}, "[5]": {"molecular_target": "YFP-SUMO2 alanine mutant (AA), P61956-1", "conditions": "HEK293 cells; n = 3; control donor (nuclear-targeted luciferase) est. 0.028; parent: est. 0.20; read off a plot"}, "[6]": {"molecular_target": "YFP-SUMO2 alanine mutant (AA), P61956-1", "conditions": "HEK293 cells; n = 3; control donor (nuclear-targeted luciferase) est. 0.028; parent: est. 0.20; read off a plot", "remark": "listed apart in the source"}, "[7]": {"molecular_target": "YFP-SUMO3 alanine mutant (AA), P55854-2", "sequence (P55854 other isoform, or with tags, fused parts or gaps, change not shown)": "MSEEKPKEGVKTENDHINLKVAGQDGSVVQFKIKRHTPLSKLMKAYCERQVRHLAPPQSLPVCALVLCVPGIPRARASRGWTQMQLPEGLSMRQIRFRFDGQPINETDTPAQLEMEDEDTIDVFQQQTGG", "conditions": "HEK293 cells; n = 3; control donor (nuclear-targeted luciferase) est. 0.034; parent: est. 0.23; read off a plot"}, "[8]": {"molecular_target": "YFP-SUMO3 alanine mutant (AA), P55854-2", "conditions": "HEK293 cells; n = 3; control donor (nuclear-targeted luciferase) est. 0.034; parent: est. 0.23; read off a plot", "remark": "listed apart in the source"}, "[9]": {"conditions": "control donor (nuclear-targeted luciferase) est. 0.028, parent: est. 0.20"}, "[10]": {"conditions": "control donor (nuclear-targeted luciferase) est. 0.034, parent: est. 0.23"}},
  "data": [
    {"substance": "YFP-SUMO1 (wild-type, GG) (from UniProt P63165-1) AA", "values": [
      {"measurement": "response", "setting": "luciferase-FOXP1; control donor (nuclear-targeted luciferase) est. 0.000, parent: est. 0.15", "value": -0.043, "unit": "BRET ratio"},
      {"measurement": "response", "setting": "[1]; control donor (nuclear-targeted luciferase) est. 0.000, parent: est. 0.077", "value": -0.017, "unit": "BRET ratio"},
      {"measurement": "response", "setting": "[1]; control donor (nuclear-targeted luciferase) est. 0.005, parent: est. 0.15", "value": 0.019, "unit": "BRET ratio"},
      {"measurement": "response", "setting": "[2]; control donor (nuclear-targeted luciferase) est. 0.004, parent: est. 0.15", "value": 0.019, "unit": "BRET ratio"}
    ]},
    {"substance": "YFP-SUMO2 (wild-type, GG) (from UniProt P61956-1) AA", "values": [
      {"measurement": "response", "setting": "luciferase-FOXP1; control donor (nuclear-targeted luciferase) est. 0.012, parent: est. 0.19", "value": -0.036, "unit": "BRET ratio"},
      {"measurement": "response", "setting": "[1]; control donor (nuclear-targeted luciferase) est. 0.012, parent: est. 0.13", "value": 0.005, "unit": "BRET ratio"},
      {"measurement": "response", "setting": "[1]; [9]", "value": 0.032, "unit": "BRET ratio"},
      {"measurement": "response", "setting": "[2]; [9]", "value": 0.032, "unit": "BRET ratio"}
    ]},
    {"substance": "YFP-SUMO3 (wild-type, GG) (from UniProt P55854) AA", "values": [
      {"measurement": "response", "setting": "luciferase-FOXP1; control donor (nuclear-targeted luciferase) est. 0.015, parent: est. 0.20", "value": -0.035, "unit": "BRET ratio"},
      {"measurement": "response", "setting": "[1]; control donor (nuclear-targeted luciferase) est. 0.015, parent: est. 0.15", "value": 0.012, "unit": "BRET ratio"},
      {"measurement": "response", "setting": "[1]; [10]", "value": 0.065, "unit": "BRET ratio"},
      {"measurement": "response", "setting": "[2]; [10]", "value": 0.065, "unit": "BRET ratio"}
    ]},
    {"substance": "m1; m10 FOXP2:K674R; SUMO1:AA", "values": [
      {"measurement": "response", "setting": "[3]", "value": 0.012, "unit": "BRET ratio"}
    ]},
    {"substance": "m1; m10 FOXP2:R553H; SUMO1:AA", "values": [
      {"measurement": "response", "setting": "[4]", "value": 0.008, "unit": "BRET ratio"}
    ]},
    {"substance": "m1; m11 FOXP2:K674R; SUMO2:AA", "values": [
      {"measurement": "response", "setting": "[5]", "value": 0.021, "unit": "BRET ratio"}
    ]},
    {"substance": "m1; m11 FOXP2:R553H; SUMO2:AA", "values": [
      {"measurement": "response", "setting": "[6]", "value": 0.048, "unit": "BRET ratio"}
    ]},
    {"substance": "m1; m12 FOXP2:K674R; SUMO3:AA", "values": [
      {"measurement": "response", "setting": "[7]", "value": 0.043, "unit": "BRET ratio"}
    ]},
    {"substance": "m1; m12 FOXP2:R553H; SUMO3:AA", "values": [
      {"measurement": "response", "setting": "[8]", "value": 0.027, "unit": "BRET ratio"}
    ]}
  ]
}
